Measurements reported in patent publication US20250066499A1 (SUNSHINE GUOJIAN PHARMACEUTICAL SHANGHAI, published 2025).

T1: CD73-CD-his (human, UniProt P21589 337-549)
T1 construct: it fits residue S549 of P21589 (27+522)
T1 sequence: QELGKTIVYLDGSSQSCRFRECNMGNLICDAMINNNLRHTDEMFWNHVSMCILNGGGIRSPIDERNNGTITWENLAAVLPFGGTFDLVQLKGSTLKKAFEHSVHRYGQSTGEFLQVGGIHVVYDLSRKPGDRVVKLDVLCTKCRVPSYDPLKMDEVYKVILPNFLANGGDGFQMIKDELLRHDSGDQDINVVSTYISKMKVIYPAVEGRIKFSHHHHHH

T2: CD73-ND-Y132A (human, UniProt P21589 27-317)
T2 construct: Alanine mutant of CD73-ND
T2 sequence: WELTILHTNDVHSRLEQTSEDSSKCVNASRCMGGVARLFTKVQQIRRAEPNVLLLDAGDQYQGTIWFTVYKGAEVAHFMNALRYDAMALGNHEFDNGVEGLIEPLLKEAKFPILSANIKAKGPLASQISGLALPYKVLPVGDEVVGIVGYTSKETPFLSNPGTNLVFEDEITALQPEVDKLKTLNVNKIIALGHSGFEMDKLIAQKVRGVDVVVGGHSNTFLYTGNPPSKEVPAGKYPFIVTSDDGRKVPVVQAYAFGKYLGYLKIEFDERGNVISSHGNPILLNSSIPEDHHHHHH

T3: CD73-ND-P134A (human, UniProt P21589 27-317)
T3 construct: Alanine mutant of CD73-ND
T3 sequence: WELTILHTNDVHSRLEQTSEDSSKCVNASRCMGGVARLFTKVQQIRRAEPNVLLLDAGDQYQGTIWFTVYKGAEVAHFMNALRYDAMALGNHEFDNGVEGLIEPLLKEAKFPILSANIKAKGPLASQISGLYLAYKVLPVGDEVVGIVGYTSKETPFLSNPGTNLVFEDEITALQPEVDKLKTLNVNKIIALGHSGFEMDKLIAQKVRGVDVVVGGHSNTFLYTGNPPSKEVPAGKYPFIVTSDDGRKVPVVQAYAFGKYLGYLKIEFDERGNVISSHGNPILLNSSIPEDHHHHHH

T4: CD73-ND-L133A (human, UniProt P21589 27-317)
T4 construct: Alanine mutant of CD73-ND
T4 sequence: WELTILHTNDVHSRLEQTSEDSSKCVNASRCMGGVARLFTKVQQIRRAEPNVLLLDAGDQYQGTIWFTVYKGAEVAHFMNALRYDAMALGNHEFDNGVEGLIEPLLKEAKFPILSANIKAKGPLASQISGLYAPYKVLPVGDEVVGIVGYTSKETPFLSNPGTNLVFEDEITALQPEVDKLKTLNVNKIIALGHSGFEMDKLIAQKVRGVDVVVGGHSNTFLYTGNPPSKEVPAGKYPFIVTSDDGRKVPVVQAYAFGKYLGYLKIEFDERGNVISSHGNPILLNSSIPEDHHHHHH

T5: CD73-ND-L138A (human, UniProt P21589 27-317)
T5 construct: Alanine mutant of CD73-ND
T5 sequence: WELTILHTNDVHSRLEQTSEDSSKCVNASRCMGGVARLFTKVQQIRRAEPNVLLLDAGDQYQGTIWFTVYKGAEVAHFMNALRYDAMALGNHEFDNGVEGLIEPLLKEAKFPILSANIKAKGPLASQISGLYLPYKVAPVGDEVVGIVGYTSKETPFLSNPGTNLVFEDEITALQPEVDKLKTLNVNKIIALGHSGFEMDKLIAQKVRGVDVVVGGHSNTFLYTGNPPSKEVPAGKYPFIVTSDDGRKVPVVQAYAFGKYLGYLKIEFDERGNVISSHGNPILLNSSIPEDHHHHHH

T6: CD73-ND-E143A (human, UniProt P21589 27-317)
T6 construct: Alanine mutant of CD73-ND
T6 sequence: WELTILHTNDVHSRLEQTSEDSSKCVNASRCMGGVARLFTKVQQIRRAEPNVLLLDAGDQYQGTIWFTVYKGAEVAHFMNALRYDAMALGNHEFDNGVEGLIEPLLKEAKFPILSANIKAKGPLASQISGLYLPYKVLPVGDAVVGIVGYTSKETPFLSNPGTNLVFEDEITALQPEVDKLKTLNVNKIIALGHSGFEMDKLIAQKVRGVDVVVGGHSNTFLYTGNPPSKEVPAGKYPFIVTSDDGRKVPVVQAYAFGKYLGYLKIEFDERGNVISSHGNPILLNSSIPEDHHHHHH


Columns and labels:
CD73-CD-his = molecular target: T1, CD73-CD-his; test: ELISA as in Example 3, antigen CD73-CD-his, antibody titrated, absorbance 450 nm
CD73-ND-Y132A = molecular target: T2, CD73-ND-Y132A; test: ELISA, biotinylated antigen on streptavidin plate
Procedure: (§1) The ELISA plates were coated with SA protein diluted to 1.5 μg/mL in coating buffer (50 mM carbonate coating buffer, pH 9.6) and incubated overnight at 4° C. The supernatant was discarded, and the plates were washed three times with PBST. Then, 5% skimmed milk powder prepared with PBS was added for blocking and the plates were incubated for 2 h at 37° C. After washing the plates once with PBST, CD73-biotin protein (prepared by biotinylating CD73-His protein according to the EZ-Link NHS-Biotin Reagent instructions) was diluted to 0.5 μg/mL and added at 100 μL/well for incubation at room temperature for 1 h. The plates were washed three times with PBST, and the prepared murine-derived monoclonal antibodies against human CD73 were serially diluted with 1% BSA buffer prepared with PBST and added to the ELISA plates at 100 μl/well. The plates were incubated at 37° C. for 1 h. After washing the plates three times with PBST, HRP-labeled goat anti-mouse IgG secondary antibody was added and the plates were incubated for 30 min at 37° C. After washing the plates three times with PBST, the residual droplets were patted dry on absorbent paper as much as possible. Then, 100 μl of TMB color developing solution was added to each well, and the plates were incubated in the dark at room temperature for 5 min for color development. Subsequently, 50 μl of 2M H₂SO₄ stop solution was added to each well to terminate the substrate reaction. The OD values were read at 450 nm using a multimode microplate reader to analyze the binding ability of the tested antibodies to the target antigen human CD73-His.
(§2) Referring to the experimental method in Example 3, the affinity of 48A11-HuV33 for various mutant proteins of CD73-ND was determined. The SA protein was diluted to 1 μg/mL for coating the ELISA plates, and the biotinylated CD73 protein (CD73-biotin) was used at a concentration of 0.1 μg/mL.

CD73-ND-P134A = molecular target: T3, CD73-ND-P134A; test: ELISA, biotinylated antigen on streptavidin plate
Procedure: as §1, §2

CD73-ND-L133A = molecular target: T4, CD73-ND-L133A; test: ELISA, biotinylated antigen on streptavidin plate
Procedure: as §1, §2

CD73-ND-L138A = molecular target: T5, CD73-ND-L138A; test: ELISA, biotinylated antigen on streptavidin plate
Procedure: as §1, §2

CD73-ND-E143A = molecular target: T6, CD73-ND-E143A; test: ELISA; decline multiple of EC50 against CD73-ND
Procedure: as §1, §2

| Binder | binding result (CD73-CD-his) | EC50 (CD73-ND-Y132A) [nM] | EC50 (CD73-ND-P134A) [nM] | EC50 (CD73-ND-L133A) [nM] | EC50 (CD73-ND-L138A) [nM] | Ratio(EC50) (CD73-ND-E143A) [fold] |
| --- | --- | --- | --- | --- | --- | --- |
| 56B10-HuV31 (antibody, human IgG4, V domains shown, Humanized) VH: QVQLQQSGAEVKKPGASVKVSCKASGYTFTRYYIYWVRQRPGQGLEWIGWIYPGNFNTKYNEKFKGRATLTADTSASTAYMELSSLTSEDTAVYYCARDVYDYAGFAYWGQGTLVTVSS VL: DIQLTQSPSFLSASVGDRVTITCKASQGVATAVAWYQQKPGQSPKLLIYWASTRHTGVPDRFSGSGSGTEFTLTISSLQPEDFATYYCQQYSSYPWTFGQGTKVEIK | no binding (tested: 10 nM) |  |  |  |  |  |
| 48A11-HuV33 (antibody, human IgG4, V domains shown, Humanized) VH: QVQLVQSGAEVKKPGASVKVSCKASGYTFTSYWMHWVRQAPGQGLEWIGEINPSIGRTNYNEKFKSRVTLTRDTSTSTAYMELSSLRSEDTAVYYCARRVYGTMDYWGQGTLVTVSS VL: DIQMTQSPSSLSASVGDRVTITCKASQDINSYLSWFQQKPGKSPKLLIYRANIWVDGVPSRFSGSGSGQDYTFTISSLQPEDIATYYCLQYDELYTFGQGTKVEIK |  | 10.5 | 0.205 | 25.8 | 0.182 | 1.4 |
